# From IntAct's records for PubMed 18292755
# B1: Autoimmune regulator (Homo sapiens), O43918 (parent)
# chain: MATDAALRRLLRLHRTEIAVAVDSAFPLLHALADHDVVPEDKFQETLHLKEKEGCPQAFHALLSWLLTQDSTAILDFWRVLFKDYNLERYGRLQPILDSFPKDVDLSQPRKGRKPPAVPKALVPPPRLPTKRKASEEARAAAPAALTPRGTASPGSQLKAKPPKKPESSAEQQRLPLGNGIQTMSASVQRAVAMSSGDVPGARGAVEGILIQQVFESGGSKKCIQVGGEFYTPSKFEDSGSGKNKARSSSGPKPLVRAKGAQGAAPGGGEARLGQQGSVPAPLALPSDPQLHQKNEDECAVCRDGGELICCDGCPRAFHLACLSPPLREIPSGTWRCSSCLQATVQEVQPRAEEPRPQEPPVETPLPPGLRSAGEEVRGPPGEPLAGMDTTLVYKHLPAPPSAAPLPGLDSSALHPLLCVGPEGQQNLAPGARCGVCGDGTDVLRCTHCAAAFHWRCHFPAGTSRPGTGLRCRSCSGDVTPAPVEGVLAPSPARLAPGPAKDDTASHEPALHRDDLESLLSEHTFDGILQWAIQSMARPAAPFPS
# Variants of: B1
# Conditions: with h31_human H3C1, P68431
row,effect of a mutation on the interaction,Variant
1,disrupting interaction,C311Y

# Variants of: B1
# Conditions: with h31_human H3C1, P68431
# Remark: another data set of the same source
row,effect of a mutation on the interaction,Variant
1,decreasing interaction,V301M

# Variants of: B1
# Conditions: with h31_human H3C1, P68431
# Remark: another data set of the same source
row,effect of a mutation on the interaction,Variant
1,disrupting interaction,D312A

# Variants of: B1
# Conditions: with h31_human H3C1, P68431
# Remark: another data set of the same source
row,effect of a mutation on the interaction,Variant
1,disrupting interaction,D297A

# Variants of: B1
# Conditions: with h31_human H3C1, P68431
# Remark: another data set of the same source
row,effect of a mutation on the interaction,Variant
1,decreasing interaction,D297A
